US20230235059A1 (SORRENTO THERAPEUTICS, published 2023)
Changes are numbered by the printed parent chain.

Legend:
[1] = molecular target: PD-1 in the Promega PD1/PD-L1 blockade reporter bioassay (Cat. No. J1250) (human, UniProt Q15116 25-288); experiment: cell-based or functional assay
[2] = molecular target: T1, Recombinant cynomolgus monkey PD-1-His (Sino Biological catalog #90311-C08H) (cynomolgus monkey, UniProt Q15116 25-167 (human entry)); experiment: SPR (BIACORE), antibody captured on anti-human Fc, PD-1-His as analyte
T1 construct: Bought protein; also called cyno PD-1-His; cynomolgus monkey PD-1 antigen; not shown: His tag
T1 chain: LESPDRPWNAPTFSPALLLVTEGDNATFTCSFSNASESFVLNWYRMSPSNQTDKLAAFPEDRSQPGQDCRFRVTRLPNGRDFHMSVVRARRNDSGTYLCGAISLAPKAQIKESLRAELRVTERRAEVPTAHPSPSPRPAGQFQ
Experimental: (§1) Binding kinetics of anti-PD1 antibodies with PD-1 proteins from different species was measured using surface plasmon resonance (SPR). […] The PD-1 proteins from human (catalog #10377-H08H-B), cynomolgus monkey (catalog #90311-C08H), rhesus monkey (catalog #90305-K08H), and mouse (catalog #50124-M08H) were obtained from Sino Biological. Anti-human fragment crystallizable region (Fc region) antibody was immobilized on a CMS sensor chip to approximately 8,000 RU using standard N-hydroxysuccinimide/N-Ethyl-N′-(3-dimethylaminopropyl) carbodiimide hydrochloride (NHS/EDC) coupling methodology. […] Recombinant human, cyno, rhesus and mouse PD-1-His were serially diluted in a running buffer of 0.01 M HEPES pH 7.4, 0.15 M NaCl, 3 mM EDTA, 0.05% v/v Surfactant P20 (HBS-EP+). All measurements were conducted in HBS-EP+ buffer with a flow rate of 30 μL/minute. A 1:1 (Langmuir) binding model was used to fit the data. All BIACORE assays were performed at room temperature.

[3] = molecular target: T2, Recombinant mouse PD-1-His (Sino Biological catalog #50124-M08H) (mouse, UniProt Q02242 25-167); experiment: as above
T2 construct: Bought protein; also called mouse PD-1 antigen; not shown: His tag
T2 sequence: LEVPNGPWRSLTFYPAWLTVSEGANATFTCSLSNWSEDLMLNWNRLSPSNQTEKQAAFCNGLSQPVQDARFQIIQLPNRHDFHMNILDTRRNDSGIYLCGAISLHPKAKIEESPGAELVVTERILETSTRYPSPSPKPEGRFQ
Experimental: as §1

[4] = molecular target: T3, Recombinant rhesus monkey PD-1-His (Sino Biological catalog #90305-K08H) (rhesus monkey); experiment: as above
T3 construct: Bought protein; also called rhesus PD-1-His; rhesus monkey PD-1 antigen; not shown: His tag
T3 chain: T1 chain with A10P, Q67R, R75Q
Experimental: as §1

Sequence of PD-1 in the Promega PD1/PD-L1 blockade reporter bioassay (Cat. No. J1250) (Q15116 25-288 limits assumed): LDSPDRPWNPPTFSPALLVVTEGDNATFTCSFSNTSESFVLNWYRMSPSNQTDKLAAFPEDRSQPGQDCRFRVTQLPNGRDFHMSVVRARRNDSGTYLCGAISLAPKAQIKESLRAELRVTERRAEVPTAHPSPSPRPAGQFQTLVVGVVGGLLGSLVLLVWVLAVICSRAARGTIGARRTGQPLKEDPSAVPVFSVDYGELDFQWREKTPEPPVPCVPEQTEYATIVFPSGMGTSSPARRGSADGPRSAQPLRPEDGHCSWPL

EC50 of fold induction of Relative Light Units (RLU), PD1/PD-L1 blockade reporter bioassay [1]: 0.493 µg/mL
binding result [2]: binds
binding result [3]: binds
binding result [4]: binds
B1: HPD-BB9 (antibody, V domains shown)
VH: QVQLVQSGAEVKKPGASVKVSCKASGFRLTTNGISWVRQAPGQGLEWMGWISAGGGPTNYAQKLQGRVTMTTDTSTSTAYMELRSLRSDDTAVYYCAKGLYGTKDAWGQGTLVTVSS
VL: QSVLTQPPSVSEVPGQRVTISCSGGGSNIGSNAVNWYQHFPGKAPKLLIYYNDLLPSGVSDRFSASKSGTSASLAISGLRSEDEADYYCAAWDDNLSAYVFATGTKVTVL
notes: also called HDP-BB9; anti-PD1 clone HPD-BB9
